# Laboratory results reported in the supplement of paper PMC6757056.
# ± gives the standard deviation of the averaged measurements.
# B1: library; a variant is named by its letters at N, in order (parent)
# chain: GCUGUCACCGGUGCUUGGUACGUUAUAUUCAGCCGGUCUGAUGAGUCUNNNNNNAGACGAAACAGC
# Legend:
# (6R,S)-folinic acid [1] = variants of: B1; assay: normalized RNA/DNA level without ligand (relative to sTRSVctl = 100) (log10 (% of sTRSVctl)); HEK293T overexpressing SLC46A1; higher = less ribozyme self-cleavage, higher mRNA level; conditions: without (6R,S)-folinic acid; ligand present: no
# Outline: (§1)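 Library plasmids carrying ribozyme switches linked to mCherry, or to eGFP in some ligand experiments, were transfected into HEK293T at 4 µg per 6-well well, with any ligand added 1 h earlier. Seventy-two hours on, total RNA was extracted with EDTA and reverse-transcribed, amplified, barcoded and sequenced. RNA level was RNA over DNA reads normalized to a spiked-in non-cleaving sequence or to the top sequences, then scaled and log-transformed. The top set was 25 sequences, the transform was ×100 and log10, and sequences needed ≥100 DNA reads.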
# (6R,S)-folinic acid [2] = variants of: B1; assay: normalized RNA/DNA level with ligand (relative to sTRSVctl = 100) (log10 (% of sTRSVctl)); HEK293T overexpressing SLC46A1; ligand concentration (+) RNA-Seq: 6 mM; higher = less ribozyme self-cleavage, higher mRNA level; conditions: with (6R,S)-folinic acid; ligand present: yes
# Outline: as §1
Variant,"normalized RNA/DNA level without ligand (log10) ((6R,S)-folinic acid [1])","normalized RNA/DNA level with ligand (log10) ((6R,S)-folinic acid [2])"
UGGGGG,1.8 ± 0.017,2.008 ± 0.018
UGGGGA,1.836 ± 0.0073,1.99 ± 0.036
UGGGGC,2.024 ± 0.01,2.02 ± 0.023
GGCGUC,2.058 ± 0.012,2.01 ± 0.047
GGCGUU,2.08 ± 0.027,2.06 ± 0.034
GGCGUG,2.071 ± 0.0047,2.06 ± 0.033
GGCGUA,2.068 ± 0.004,2.04 ± 0.03
CGCUUG,2.066 ± 0.018,2.041 ± 0.015
CGCUUA,2.002 ± 0.011,2.014 ± 0.019
CGCUUC,2.1105 ± 0.0021,2.09 ± 0.066
UGGAAU,1.869 ± 0.0092,2 ± 0.024
UGGAAA,1.919 ± 0.0043,1.98 ± 0.028
UGGAAC,1.921 ± 0.0075,2 ± 0.035
UGCUAU,1.994 ± 0.0055,2.05 ± 0.03
UGCUAC,2.021 ± 0.0079,2.02 ± 0.071
CGCGUU,2.094 ± 0.014,2.07 ± 0.03
CGCGUC,2.071 ± 0.0094,2.06 ± 0.036
CGCGUG,1.963 ± 0.0059,2 ± 0.027
CGCGUA,1.993 ± 0.017,2.006 ± 0.0037
UGGGUC,2.11 ± 0.022,2.06 ± 0.034
UGGGUU,1.9881 ± 0.0019,2.018 ± 0.016
UGGGUA,1.892 ± 0.0053,1.98 ± 0.053
CGGCUU,2.04 ± 0.04,2.02 ± 0.022
CGGCUA,2.11 ± 0.027,2.067 ± 0.011

Variant,"normalized RNA/DNA level without ligand (log10) ((6R,S)-folinic acid [1])","normalized RNA/DNA level with ligand (log10) ((6R,S)-folinic acid [2])"
CGGCUG,2.0746 ± 0.002,2.04 ± 0.027
CGCUAC,2.0081 ± 0.001,2.03 ± 0.048
CGCUAA,1.97 ± 0.019,1.99 ± 0.055
CGCUAG,2.007 ± 0.0038,2.025 ± 0.011
CGCUAU,1.981 ± 0.0029,2 ± 0.024
CGCUGU,2.03 ± 0.038,2 ± 0.02
CGCUGA,2.075 ± 0.003,2.05 ± 0.03
CGCUGG,1.974 ± 0.0042,2.016 ± 0.0049
UGGCGG,1.8196 ± 0.0011,1.99 ± 0.056
UGGCGA,1.98 ± 0.0056,2.067 ± 0.0097
UGGCGC,2.08 ± 0.027,2.05 ± 0.055
UGGCGU,1.99 ± 0.031,2.03 ± 0.05
UGGAUA,1.93 ± 0.022,1.99 ± 0.031
UGGAUC,2.039 ± 0.01,2.01 ± 0.032
CGCUCG,2.047 ± 0.0074,2.018 ± 0.015
CGCUCU,2.1 ± 0.033,2.06 ± 0.033
CGCUCC,2.082 ± 0.015,2.057 ± 0.017
CGCUCA,2.05 ± 0.022,2.038 ± 0.008
CGGAUU,2.031 ± 0.015,2.02 ± 0.045
CGGAUC,2.085 ± 0.011,2.034 ± 0.003
GGCUCU,2.087 ± 0.0098,2.05 ± 0.038
GGCUCA,2.073 ± 0.011,2.01 ± 0.033
GGCUCC,2.0314 ± 0.0019,2.02 ± 0.046
GGCUCG,2.067 ± 0.014,2.03 ± 0.042

Variant,"normalized RNA/DNA level without ligand (log10) ((6R,S)-folinic acid [1])","normalized RNA/DNA level with ligand (log10) ((6R,S)-folinic acid [2])"
GGGUCA,2.078 ± 0.0065,2.09 ± 0.053
AGCGGC,2.104 ± 0.0038,2.05 ± 0.039
AGCGGG,2.004 ± 0.016,2.055 ± 0.019
GGGAUA,2 ± 0.028,2.03 ± 0.022
GGGAUU,2.0271 ± 0.0004,2.04 ± 0.047
GGGAUC,2.037 ± 0.0086,2.04 ± 0.027
AGGUAU,2.009 ± 0.0096,2.04 ± 0.052
AGGUAC,1.982 ± 0.0027,1.995 ± 0.0077
AGGUAA,1.95 ± 0.024,1.98 ± 0.02
AGGUAG,1.912 ± 0.0057,2 ± 0.077
CGGUCA,2.005 ± 0.014,1.98 ± 0.064
CGCGGG,1.938 ± 0.017,2.039 ± 0.01
CGCGGU,2.003 ± 0.019,2.035 ± 0.015
GGGCCA,2.126 ± 0.019,2.09 ± 0.041
GGGCCG,2.091 ± 0.018,2.08 ± 0.047
GGGCCC,2.102 ± 0.0043,2.08 ± 0.039
GGGCCU,2.098 ± 0.0088,2.08 ± 0.036
AGGCUG,2.0598 ± 0.0012,2.04 ± 0.0063
AGGCUU,2.03 ± 0.027,2.04 ± 0.041
GGGGAU,2.002 ± 0.0074,2.03 ± 0.05
GGGGAG,1.9915 ± 0.00084,2.04 ± 0.043
GGGGAC,1.995 ± 0.013,2.029 ± 0.012
AGGACU,1.993 ± 0.0073,2.009 ± 0.017
AGGACA,1.989 ± 0.0041,2.02 ± 0.038

Variant,"normalized RNA/DNA level without ligand (log10) ((6R,S)-folinic acid [1])","normalized RNA/DNA level with ligand (log10) ((6R,S)-folinic acid [2])"
AGGACC,2.029 ± 0.0033,1.99 ± 0.043
AGGACG,1.962 ± 0.0089,2.032 ± 0.014
CGGAAA,1.9343 ± 0.0017,1.98 ± 0.045
CGGAAC,1.984 ± 0.0056,2 ± 0.034
CGGAAG,1.94 ± 0.021,1.98 ± 0.028
CGGGCG,1.993 ± 0.005,2.04 ± 0.043
CGGGCC,2.072 ± 0.0092,2.035 ± 0.019
CGGGCU,2.09 ± 0.021,2.06 ± 0.03
CGGGCA,2.059 ± 0.0067,2.04 ± 0.0044
AGGGUU,2.021 ± 0.0045,2.01 ± 0.035
AGGGUC,2.051 ± 0.0057,2.03 ± 0.063
AGGGUA,1.968 ± 0.019,2.02 ± 0.0085
AGGGUG,1.952 ± 0.0024,2.04 ± 0.028
AGGAGC,1.99 ± 0.016,2.01 ± 0.04
AGGAGU,1.934 ± 0.0037,2.033 ± 0.014
GGGAAA,1.99 ± 0.0091,2.02 ± 0.036
GGGAAU,2.008 ± 0.0024,2.019 ± 0.02
GGGAAC,1.997 ± 0.015,2.02 ± 0.032
GGCGGU,2.06 ± 0.026,2.03 ± 0.037
GGCGGG,2.1126 ± 0.00086,2.08 ± 0.028
GGCGGC,2.012 ± 0.018,2.014 ± 0.013
UGCGUU,1.972 ± 0.018,2 ± 0.051
UGCGUC,2.09 ± 0.0072,2.04 ± 0.044
UGCGUA,1.904 ± 0.015,1.98 ± 0.035

Variant,"normalized RNA/DNA level without ligand (log10) ((6R,S)-folinic acid [1])","normalized RNA/DNA level with ligand (log10) ((6R,S)-folinic acid [2])"
AGGGGA,2.001 ± 0.0065,2.04 ± 0.058
AGGGGU,1.98 ± 0.025,2.02 ± 0.039
AGGGGC,2.047 ± 0.0056,2.04 ± 0.053
AGGGGG,1.9815 ± 0.00032,2.05 ± 0.064
GGGCUC,2.1006 ± 0.0021,2.1 ± 0.021
GGGCUA,2.048 ± 0.0023,2.05 ± 0.033
GGGCUG,2.044 ± 0.0043,2.03 ± 0.046
GGGCUU,2.143 ± 0.0064,2.1 ± 0.027
GGGCGU,2.103 ± 0.0047,2.08 ± 0.05
GGGCGC,2.011 ± 0.016,2.04 ± 0.048
GGGCGA,2.089 ± 0.0043,2.1 ± 0.018
AGGCCA,2.0454 ± 0.0016,2.04 ± 0.04
AGGCCG,2.039 ± 0.017,2.02 ± 0.039
AGGCCU,2.07 ± 0.031,2.06 ± 0.0088
AGGCCC,2.068 ± 0.0036,2.03 ± 0.056
CGGCCC,2.09 ± 0.035,2.04 ± 0.032
CGGCCG,2.038 ± 0.015,2.03 ± 0.038
CGGCCU,2.0767 ± 0.00028,2.06 ± 0.068
CGGCCA,2.111 ± 0.021,2.058 ± 0.0046
GGGAGA,2.021 ± 0.0092,2.05 ± 0.043
